Laboratory results as given in patent publication US20180022819A1, “COMPOSITIONS AND METHODS FOR COMBINATION THERAPY WITH PROSTATE-SPECIFIC MEMBRANE ANTIGEN BINDING PROTEINS” (APTEVO RESEARCH AND DEVELOPMENT LLC, priority 2015, published 2018).

How the values were obtained:
PSMA = assay: Binding of FITC-labeled 107-1A4 to 22Rv1 cells by flow cytometry (Example 4); parameters: species or system human; conditions: 22Rv1 cells that were or were not incubated with enzalutamide
Excerpt: Mean fluorescence intensity (MFI) of bound molecules on live cells is shown on the y-axis. Concentration (nM) of the anti-PSMA monoclonal antibody 107-1A4 labeled with FITC is shown on the x-axis.
22Rv1 cells (PSMA+ at low level) were obtained from ATCC (Manassas, Va.) and cultured according to the ATCC protocol in RPMI-1640 media plus 10% FBS. […] All four cultures were harvested, stained for PSMA with FITC-labeled anti-PSMA monoclonal antibody 107-1A4 (Acris), and PSMA expression assayed by standard flow cytometry procedures. 22Rv1 cells were harvested with trypsin, and placed into FACS buffer (PBS+0.5% BSA [Equitech]+2 mM EDTA [Life Technologies]) at 1×10e6 per ml. FITC-107-1A4 was prepared at 36 nM in FACS buffer, and serially diluted 1:3, before adding 50 μl to 2×10e5 22Rv1 cells which had been pelleted in a 96 well plate. After 30 minute incubation on ice, cells were washed 3 times in FACS buffer, resuspended in FACS buffer, and data acquired on a BD LSRII flow cytometer. The sample files were analyzed using FlowJo software; the median fluorescence intensity (MFI) of the live population of 22Rv1 cells in each well was calculated after gating on live cells (forward vs side scatter). Median fluorescence intensities were fit to a 4-parameter logistic curve and graphed as concentration vs. MFI using GraphPad PRISM® software.

22Rv1 cells = assay: Chromium-51 release assay of redirected T-cell cytotoxicity against 22Rv1 cells (Example 5); assay type: cell-based, human; conditions: enzalutamide-treated 22Rv1 cells relative to untreated 22Rv1 cells
Protocol: FIG. 3 (top panel) is a graph showing the results of a chromium-51 release assay measuring the effectiveness of the anti-PSMA bispecific molecule TSC249 at inducing redirected T-cell cytotoxicity in 4 hours against enzalutamide-treated and untreated prostate cancer 22Rv1 cells. Percent specific lysis relative to a total lysis control is shown on the y-axis. Concentration (pM) of the anti-PSMA bispecific molecule TSC249 is shown on the x-axis.
To compare the sensitivity of enzalutamide-treated and untreated 22Rv1 prostate cancer cells to target-dependent T-cell cytotoxicity, a bispecific binding molecule targeting PSMA and CD3 was tested in a chromium (^51Cr) release assay using donor T-cells as effector cells. [See, e.g., US 2014/0161800 A1, which describes multispecific binding molecules that bind to prostate-specific membrane antigen (PSMA) and CD3.]
Cytotoxicity was assessed by a ^51Cr release assay. […]
Plates were incubated for 4 hours, spun at 225×g for 3 minutes, and 25 μL of supernatant was transferred from each well to the corresponding well of a 96-well LUMAPLATE® sample plate (Perkin Elmer). Sample plates were allowed to air dry in a chemical safety hood for 18 hours, and then radioactivity was read on a Topcount scintillation counter using a standard protocol. […]

LNCaP cells [1] = assay: Growth inhibition of LNCaP-GFP cells with primary human T-cells, 4 days, with combination index analysis (Example 6); assay type: cell-based
Protocol: Additional procedures are described in Example 6. Percentage of live cells relative to an untreated control is shown on the y-axis.
Combination indices can indicate additive effects (CI=1), synergism (CI<1), or antagonism (CI>1).
Overall fluorescent signal from GFP enabled the quantitation of living LNCaP target cells in isolation from T-cells. […] TSC249 was added to have final concentrations of 125, 62.5, 31.25, 15.6, 7.8, 3.9, or 1.95 pM, or none. T-cells from several donors were used in replicate experiments, added at a ratio of 45,000 T-cells to 15,000 LNCaP cells per well.
After 4 days culture at 37° C. in 5% CO2, media was aspirated from wells and […] of 0.4% NP-40 was added to each well. Fluorescent signal from GFP in LNCaP cells adherent in wells was detected by a Spectramax plate reader, reading from the bottom of the wells. […]
The combination index theorem developed by Chou and Talalay was used to determine the interaction between the two compounds in their anti-cancer activity (see Chou, Cancer Res. 2010 Jan. 15; 70(2):440-6; Chou, Pharmacol Rev. 2006 September; 58(3):621-81). For each plate, relative fluorescence units (RFU) of all wells were normalized to the RFU of the well containing cells only, i.e., the proportion of living LNCaP cells in each well was expressed in relation to untreated LNCaP cells. […] Mean values were calculated from three replicates. […]

LNCaP cells [2] = assay: Effect of enzalutamide on redirected T-cell cytotoxicity in LNCaP cells expressing GFP (Example 1); assay type: cell-based, human; parameters: reduction of live target cells: dose or concentration left out as unconfirmed; conditions: TSC249 titration with T-cells and […] nM enzalutamide, compared to TSC249 and T-cells alone
Protocol: A titration of the anti-PSMA bispecific molecule TSC249 (protein sequence of SEQ ID NO: 78 in Table 3) was added to all sets of LNCaP cells in the amounts shown on the x-axis. T-cells and DMSO were added to the first set of LNCaP cells (leftmost set of bars). […] No T-cells and DMSO were added to the third set of LNCaP cells (set of bars second from the right). […] LNCaP cell growth (number of live cells) was measured by overall fluorescence and expressed as a fraction of live cells relative to the cells untreated with TSC249 on the y-axis.
LNCaP cells expressing GFP were cultured with donor T-cells at a 3:1 ratio of T-cells to LNCaP target cells for 4 days. […] DMSO alone was added to other samples. A titration of the anti-PSMA bispecific molecule TSC249 (protein sequence of SEQ ID NO: 78 in Table 3) was added to the cell cultures. LNCaP cell growth (number of live cells) was monitored by overall fluorescence.

B1: FITC-107-1A4: FITC-labeled anti-PSMA monoclonal antibody 107-1A4 (Acris) (antibody, V domains shown)
VH: EIQLQQSGPELVKPGASVKMSCKASGYTFTDYYMHWVKQNNGESLEWIGYFNPYNDYTRYNQNFNGKATLTVDKSSSTAYMQLNSLTSEDSAFYYCARSDGYYDAMDYWGQGTSVTVSS
VL: DVQITQSPSYLAASPGETITINCRASKSISKYLAWYQEKPGKANKLLIHSGSTLQSGIPSRFSGSGSGTDFTLTISSLEPEDFAMYYCQQHIEYPWTFGGGTKLEIKRA
- ECso values determined from binding curves (PSMA): no significant differences

B2: TSC249: anti-PSMA bispecific molecule targeting PSMA and CD3; protein sequence of SEQ ID NO: 78 (protein)
chain: DIQMTQSPSAMSASVGDRVTITCRASKSISKYLAWFQQKPGKVPKLRIHSGSTLQSGVPSRFSGSGSGTEFTLTISSLQPEDFATYYCQQHIEYPWTFGQGTKVEIKRGGGGSGGGGSGGGGSQVQLVQSGAEVKKPGASVKVSCKASGYTFTDYYMHWVRQAPGQGLEWMGYFNPYNDYTRYAQKFQGRVTMTRDTSISTAYMELSSLRSDDTAVYYCARSDGYYDAMDYWGQGTTVTVSSSEPKSSDKTHTCPPCPAPEAAGAPSVFLFPPKPKDTLMISRTPEVTCVVVDVSHEDPEVKFNWYVDGVEVHNAKTKPREEQYNSTYRVVSVLTVLHQDWLNGKAYACAVSNKALPAPIEKTISKAKGQPREPQVYTLPPSRDELTKNQVSLTCLVKGFYPSDIAVEWESNGQPENNYKTTPPVLDSDGSFFLYSKLTVDKSRWQQGNVFSCSVMHEALHNHYTQKSLSLSPGQRHNNSSLNTGTQMAGHSPNSQVQLVESGGGVVQPGRSLRLSCKASGYTFTRSTMHWVRQAPGQGLEWIGYINPSSAYTNYNQKFKDRFTISADKSKSTAFLQMDSLRPEDTGVYFCARPQVHYDYNGFPYWGQGTPVTVSSGGGGSGGGGSGGGGSAQDIQMTQSPSSLSASVGDRVTMTCSASSSVSYMNWYQQKPGKAPKRWIYDSSKLASGVPARFSGSGSGTDYTLTISSLQPEDFATYYCQQWSRNPPTFGGGTKLQITSSS
modifications: Humanized TSC249 Scorpion (huVL-VH#2 107-1A4 scFv-Fc-DRA222 scFv)
- specific lysis from T-cell directed cytotoxicity (22Rv1 cells): increase in specific lysis
- interaction by combination index (Chou and Talalay) (LNCaP cells [1]; 1.95-31.25 pM TSC249 at all enzalutamide concentrations used (39, 156, 625 nM)): Synergy
- live cell signal when combined with the other drug (LNCaP cells [1]; enzalutamide plus TSC249 over a wide range of concentrations, T-cells, 4 days): further decrease in live cell signal
- reduction of live target cells (LNCaP cells [2]): higher dose-dependent reduction of live target cells
